{
  "source": "paper PMC9276669",
  "about": "“Purification, characterization, and preliminary serial crystallography diffraction advances structure determination of full-length human particulate guanylyl cyclase A receptor” (Scientific Reports, 2022)",
  "proteins": {"B1": {"name": "full-length human particulate guanylyl cyclase A receptor (pGC-A) (receptor, UniProt P16066 33-1061, looked up)", "chain": "GNLTVAVVLPLANTSYPWSWARVGPAVELALAQVKARPDLLPGWTVRTVLGSSENALGVCSDTAAPLAAVDLKWEHNPAVFLGPGCVYAAAPVGRFTAHWRVPLLTAGAPALGFGVKDEYALTTRAGPSYAKLGDFVAALHRRLGWERQALMLYAYRPGDEEHCFFLVEGLFMRVRDRLNITVDHLEFAEDDLSHYTRLLRTMPRKGRVIYICSSPDAFRTLMLLALEAGLCGEDYVFFHLDIFGQSLQGGQGPAPRRPWERGDGQDVSARQAFQAAKIITYKDPDNPEYLEFLKQLKHLAYEQFNFTMEDGLVNTIPASFHDGLLLYIQAVTETLAHGGTVTDGENITQRMWNRSFQGVTGYLKIDSSGDRETDFSLWDMDPENGAFRVVLNYNGTSQELVAVSGRKLNWPLGYPPPDIPKCGFDNEDPACNQDHLSTLEVLALVGSLSLLGILIVSFFIYRKMQLEKELASELWRVRWEDVEPSSLERHLRSAGSRLTLSGRGSNYGSLLTTEGQFQVFAKTAYYKGNLVAVKRVNRKRIELTRKVLFELKHMRDVQNEHLTRFVGACTDPPNICILTEYCPRGSLQDILENESITLDWMFRYSLTNDIVKGMLFLHNGAICSHGNLKSSNCVVDGRFVLKITDYGLESFRDLDPEQGHTVYAKKLWTAPELLRMASPPVRGSQAGDVYSFGIILQEIALRSGVFHVEGLDLSPKEIIERVTRGEQPPFRPSLALQSHLEELGLLMQRCWAEDPQERPPFQQIRLTLRKFNRENSSNILDNLLSRMEQYANNLEELVEERTQAYLEEKRKAEALLYQILPHSVAEQLKRGETVQAEAFDSVTIYFSDIVGFTALSAESTPMQVVTLLNDLYTCFDAVIDNFDVYKVETIGDAYMVVSGLPVRNGRLHACEVARMALALLDAVRSFRIRHRPQEQLRLRIGIHTGPVCAGVVGLKMPRYCLFGDTVNTASRMESNGEALKIHLSSETKAVLEEFGGFELELRGDVEMKGKGKVRTYWLLGERGSSTRG", "notes": "transmembrane domain at residues 474-495; no TEV cleavage step is described; Found as monomer and as tetramer, depending on protein concentration; also called Particulate Guanylyl Cyclase Receptor A; natriuretic peptide receptor A; source: also on whole transfected Sf9 cells"}},
  "biological_target": "the molecule itself",
  "test": "SEC; Superose 6 Increase 10/300 GL, 50 mM HEPES-NaOH pH 7.5, 150 mM NaCl, 5 mM DTT, 10% glycerol, 0.05% DDM, 0.01% CHS, 4 °C; more concentrated injected sample (about 300 uL); sizes by comparison with five standard proteins; monomer to tetramer",
  "note": "Values joined by “and” are separate entries in the source; they are usually repeats but may differ in a detail not shown here. Identical values can stand only once.",
  "data": [
    {"protein": "B1", "values": [
      {"measurement": "stoichiometry N", "value": "4 and 2"}
    ]}
  ]
}
